Here are results for 23 molecules from patent US20220193133A1 (CENTURY THERAPEUTICS, published 2022).

The target in experiment [1] is T1, D04 protein (humanized D04 VHH as ELISA antigen).
T1 construct: Panning used biotinylated D04-Fc; the ELISA legend says only 'D04 protein'
The experiment in a line: periplasmic extract ELISA, absorbance 450 nm, single point.

Experiment [2] deals with T2, B11 protein (humanized B11 VHH as ELISA antigen).
T2 construct: Panning used B11-Fc; the ELISA legend says only 'B11 protein'
The experiment is described as above.

Experiment [3] concerns the target T3, B11-his tagged VHH (humanized B11).
T3 construct: also called B11-his protein; B11 his-tagged protein
The experiment is described as follows: Octet (BLI), anti-idiotype VHH-Fc vs his-tagged VHH; table title prints D04-his, its footnote prints B11-his. In general terms: BLI is a label-free optical method that tracks binding on a fibre tip over time.

The target in experiment [4] is T4, humanized B11 VHH CAR (hyLYSO_CW_P01_B11) on Nurkat cells.
T4 construct: also called B11 (p1649); P1649
The experiment is described as follows: flow cytometry, VHH-Fc on CAR Nurkat cells, 3-fold dilutions 50 to 0.02 nM, anti-Fc APC, %Fc positive cells. From the text:
(§1) […] Fc-fusion protein was detected via anti-Fc APC, and the percentage of cells that were positive for this detection method are shown. […] Controls include (i) no VHH-Fc added and (ii) the anti-VHH cocktail detection reagent (far right). The samples shown in the graphs for each protein appear in the order as specified in the legend.

The target in experiment [5] is T5, humanized D04 VHH CAR (hyLYSO_CW_P01_D04) on Nurkat cells or primary T cells.
T5 construct: also called D04 (p1648); P1650
Described as above.
From the text: as §1

Experiment [6] addresses T6, D04-his tagged VHH (humanized D04).
T6 construct: also called LysoD04.His; D04 his-tagged protein
The experiment in a line: Octet (BLI), anti-idiotype VHH-Fc vs his-tagged VHH; table title prints B11-his, paragraph 353 ties these values to D04.

For the next experiment, the target named is T7, human lysozyme (human, UniProt P61626 19-148, biotinylated).
T7 construct: also called human lysozyme protein
T7 sequence (looked up): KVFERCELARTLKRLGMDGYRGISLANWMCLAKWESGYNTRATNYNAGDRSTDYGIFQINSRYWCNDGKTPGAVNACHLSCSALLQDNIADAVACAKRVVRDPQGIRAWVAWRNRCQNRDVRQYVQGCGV
The experiment is described as follows: flow cytometry, CAR Jurkat cells + 10 ug/mL biotinylated lysozyme, streptavidin-APC, % positive cells.

B1: huD04_CNTY2_D12 anti-idiotype VHH (periplasmic extract) (VHH)
VHH: EVQLLESGGGLVQPGGSLRLSCAASGSAFSSNAMGWYRQAPGKERELVSAISSGGSTNYADSVKGRFTISRDNSKNTLYLQMNSLRAEDTAVYYCAARNPLTYTALVSNAPSGDYYLFEYRLWGQGTQVTVSS
notes: Screened as periplasmic extract; also called VHH of AMD85
Consider B1, for which the binding result in experiment [1] was “binds”; in experiment [2] it was “no binding”.

B2: AMD87 (huD04_CNTY1_D11 anti-idiotype VHH IgG1-Fc fusion) (Fc fusion)
chain: EVQLLESGGGLVQPGGSLRLSCAASGSTFSYYYMGWYRQAPGKERELVSAISSGGSIYYADSVKGRFTISRDNSKNTLYLQMNSLRAEDTAVYYCARRTYYGDEADYWGQGTQVTVSS
notes: not shown: IgG1 Fc
B2 yielded a Response in experiment [3] of -0.0301. Also, the binding result in experiment [4] is “no binding (tested: 50 nM)”.

B3: huD04_CNTY2_F12 anti-idiotype VHH (periplasmic extract) (VHH)
VHH: EVQLLESGGGLVQPGGSLRLSCAASGFTFSSNAMGWYRQAPGKEREFVSSISSGRSTTYADSVKGRFTISRDNSKNTLYLQMNSLRAEDTAVYYCAAHGTKYKWTRARLRSARQKQLETYRYWGQGTQVTVSS
notes: Screened as periplasmic extract; also called VHH of AMD74
Turning to B3, in experiment [1], the binding result is “binds”.

B4: AMD74 (huD04_CNTY2_F12 anti-idiotype VHH IgG1-Fc fusion) (Fc fusion)
chain: EVQLLESGGGLVQPGGSLRLSCAASGFTFSSNAMGWYRQAPGKEREFVSSISSGRSTTYADSVKGRFTISRDNSKNTLYLQMNSLRAEDTAVYYCAAHGTKYKWTRARLRSARQKQLETYRYWGQGTQVTVSS
notes: not shown: IgG1 Fc
For B4, the binding result in experiment [5] was “binds”.

B5: AMD73 (Fc fusion)
VHH-Fc: EVQLLESGGGLVQPGGSLRLSCAASGFTFSSYSIGWYRQAPGKERELVSVISSGGSTYYADSVKGRFTISRDNSKNTLYLQMNSLRAEDTAVYYCAASDWSYSWITYTGTWRLYEYWGQGTQVTVSS
notes: also called huB11_CNTY3+4_A01 anti-idiotype VHH IgG1-Fc fusion
Regarding B5, the binding result in experiment [5] is reported as “no binding (tested: 50 nM)”.

B6: AMD82 (huD04_CNTY1_B12 anti-idiotype VHH IgG1-Fc fusion) (Fc fusion)
chain: EVQLLESGGGLVQPGGSLRLSCAASGRTSSNYVMGWYRQAPGKEREGVSAITSGGSTYYADSVKGRFTISRDNSKNTLYLQMNSLRAEDTAVYYCAANLYSRTGAYDYWGQGTQVTVSS
notes: not shown: IgG1 Fc
Usually Kd stands for the concentration at which binding is half-saturated. By koff is commonly meant a measure of how fast the partners let go of each other. The low end stands for a long-lived complex, the high end for a short-lived complex. A word on the kon: it is a measure of how fast the partners come together. What is called EC50 (read off the curve) is the concentration at which the effect is half-maximal. A lower EC50 (read off the curve) goes with a more potent agent. Turning to B6, in experiment [6], the Kd came to 125 nM, the Response amounted to 0.172, the koff worked out at 0.0868 s⁻¹ and the kon is 697000 M⁻¹ s⁻¹. In experiment [3], the Response was -0.0225. The binding result in experiment [4] is on record as “no binding (tested: 50 nM)”. In experiment [5], the “EC50 (read off the curve)” value is about 6 nM.

B7: p245 (other)
CAR: QVQLVESGGGLVQAGGSLRLSCAASGGIFSGGRMGWFRQAPGKEREFVAAVITRGGSTYYADSVKGRFTISRDNAKNTVYLQMNSLKPEDTAVYYCAASEVTYDEGHYIGTKSTYDTWGQGTQVTVSS
As to B7, in the experiment with human lysozyme, the binding result was “no binding (tested: 10 ug/mL)”.

B8: huD04_CNTY2_D02 anti-idiotype VHH (periplasmic extract) (VHH)
VHH: EVQLLESGGGLVQPGGSLRLSCAASGFTFRSYAMGWYRQAPGKEREGVSVISSGGTPSYADSVKGRFTISRDNSKNTLYLQMNSLRAEDTAVYYCDAIMGLVEADYVSTGTYEYTAYAYWGQGTQVTVSS
notes: Screened as periplasmic extract; also called VHH of AMD80
In the case of B8, the results for the binding result in experiment [1] and in experiment [2] were “binds” and “no binding”, respectively.

B9: huD04_CNTY2_D04 anti-idiotype VHH (periplasmic extract) (VHH)
VHH: EVQLLESGGGLVQPGGSLRLSCAASGLTFSGVCMGWFRQAPGKEREGVSAIYSSGSTYYADSVKGRFTISRDNSKNTLYLQMNSLRAEDTAVYYCAADRIPDLGEPCIGTTNLARTYNYWGQGTQVTVSS
notes: Screened as periplasmic extract; also called VHH of AMD81
As to B9, in experiment [2], the binding result is reported as “no binding”.

B10: AMD81 (Fc fusion)
VHH-Fc: EVQLLESGGGLVQPGGSLRLSCAASGLTFSGVCMGWFRQAPGKEREGVSAIYSSGSTYYADSVKGRFTISRDNSKNTLYLQMNSLRAEDTAVYYCAADRIPDLGEPCIGTTNLARTYNYWGQGTQVTVSS
notes: also called huD04_CNTY2_D04 anti-idiotype VHH IgG1-Fc fusion
Consider B10, for which, in experiment [4], the binding result is “no binding (tested: 50 nM)”.

B11: huD04_CNTY2_F04 anti-idiotype VHH (periplasmic extract) (VHH)
VHH: EVQLLESGGGLVQPGGSLRLSCAASGRTFSSYGMGWYRQAPGKERELVSAISNRGSTYYADSVKGRFTISRDNSKNTLYLQMNSLRAEDTAVYYCAASPARVGVSGHSSSRRSYYGYSYDYWGQGTQVTVSS
notes: Screened as periplasmic extract; also called VHH of AMD70
Regarding B11, the binding result in experiment [1] is reported as “binds”.

B12: AMD70 (Fc fusion)
VHH-Fc: EVQLLESGGGLVQPGGSLRLSCAASGRTFSSYGMGWYRQAPGKERELVSAISNRGSTYYADSVKGRFTISRDNSKNTLYLQMNSLRAEDTAVYYCAASPARVGVSGHSSSRRSYYGYSYDYWGQGTQVTVSS
notes: also called huD04_CNTY2_F04 anti-idiotype VHH IgG1-Fc fusion
Regarding B12, the binding result in experiment [5] is recorded as “binds”.

B13: AMD75 (Fc fusion)
VHH-Fc: EVQLLESGGGLVQPGGSLRLSCAASGFAFSDYVMGWYRQAPGKEREFVSAIRSTTSTYYADSVKGRFTISRDNSKNTLYLQMNSLRAEDTAVYYCAADVWSGYEYDYWGQGTQVTVSS
notes: also called huB11_CNTY1_E11 anti-idiotype VHH IgG1-Fc fusion
With B13, the binding result in experiment [5] is recorded as “no binding (tested: 50 nM)”.

B14: AMD76 (Fc fusion)
VHH-Fc: EVQLLESGGGLVQPGGSLRLSCAASGLAFSSYAMGWYRQAPGKEREFVSVISGTGETLYADSVKGRFTISRDNSKNTLYLQMNSLRAEDTAVYYCAADVWSGYEYDYWGQGTQVTVSS
notes: also called huB11_CNTY1_B11 anti-idiotype VHH IgG1-Fc fusion
For B14, the binding result in experiment [5] is “no binding (tested: 50 nM)”.

B15: AMD69 (huD04_CNTY2_E03 anti-idiotype VHH IgG1-Fc fusion) (Fc fusion)
chain: EVQLLESGGGLVQPGGSLRLSCAASGLTYTGYAMGWYRQAPGKERELVSAISSRSSIYYADSVKGRFTISRDNSKNTLYLQMNSLRAEDTAVYYCAAGRPVALGSWRRTATWSAGLGAEYAYWGQGTQVTVSS
notes: not shown: IgG1 Fc
Regarding B15, the binding result in experiment [4] is reported as “no binding (tested: 50 nM)”. In addition, the “EC50 (read off the curve)” value in experiment [5] is about 4 nM.

B16: huD04_CNTY2_E03 anti-idiotype VHH (periplasmic extract) (VHH)
VHH: EVQLLESGGGLVQPGGSLRLSCAASGLTYTGYAMGWYRQAPGKERELVSAISSRSSIYYADSVKGRFTISRDNSKNTLYLQMNSLRAEDTAVYYCAAGRPVALGSWRRTATWSAGLGAEYAYWGQGTQVTVSS
notes: Screened as periplasmic extract; also called VHH of AMD69
B16: in experiment [2], the binding result was “no binding”.

B17: AMD71 (huB11_CNTY3+4_A02 anti-idiotype VHH IgG1-Fc fusion) (Fc fusion)
chain: EVQLLESGGGLVQPGGSLRLSCAASGRTYTGSAMGWYRQAPGKERELVSAISTGGETYYADSVKGRFTISRDNSKNTLYLQMNSLRAEDTAVYYCAAGYVGLPYTYRPATSRRGYTYWGQGTQVTVSS
notes: not shown: IgG1 Fc
In experiment [3], B17 returned a Kd of 515 nM, a Response of 0.0566, a koff of 0.14 s⁻¹ and a kon of 273000 M⁻¹ s⁻¹. The binding result in experiment [5] is “no binding (tested: 50 nM)”.

B18: huD04_CNTY2_B06 anti-idiotype VHH (periplasmic extract) (VHH)
VHH: EVQLLESGGGLVQPGGSLRLSCAASGFTFNRYSMGWYRQAPGKERELVSAISSGGSGYYADSVKGRFTISRDNSKNTLYLQMNSLRAEDTAVYYCAIQDYSRIWEYIALDRRRSYYGMDYWGQGTQVTVSS
notes: Screened as periplasmic extract; also called VHH of AMD79
In the case of B18, the binding result in experiment [2] was “no binding”.

B19: AMD79 (Fc fusion)
VHH-Fc: EVQLLESGGGLVQPGGSLRLSCAASGFTFNRYSMGWYRQAPGKERELVSAISSGGSGYYADSVKGRFTISRDNSKNTLYLQMNSLRAEDTAVYYCAIQDYSRIWEYIALDRRRSYYGMDYWGQGTQVTVSS
notes: also called huD04_CNTY2_B06 anti-idiotype VHH IgG1-Fc fusion
As to B19, in experiment [4], the binding result is “no binding (tested: 50 nM)”.

B20: huD04_CNTY2_H12 anti-idiotype VHH (periplasmic extract) (VHH)
VHH: EVQLLESGGGLVQPGGSLRLSCAASGSIFSSDVMGWYRQAPGKERELVSAISSGGSTRYADSVKGRFTISRDNSKNTLYLQMNSLRAEDTAVYYCAATMGKSKTNRRNYGTWRYGAYAYWGQGTQVTVSS
notes: Screened as periplasmic extract; also called VHH of ABD72 (AMD72)
As for B20, in experiment [1], the binding result was “binds”.

B21: AMD72 (huD04_CNTY2_H12 anti-idiotype VHH IgG1-Fc fusion) (Fc fusion)
chain: EVQLLESGGGLVQPGGSLRLSCAASGSIFSSDVMGWYRQAPGKERELVSAISSGGSTRYADSVKGRFTISRDNSKNTLYLQMNSLRAEDTAVYYCAATMGKSKTNRRNYGTWRYGAYAYWGQGTQVTVSS
notes: also called ABD72; not shown: IgG1 Fc
With B21, the binding result in experiment [5] is on record as “binds”.

B22: huD04_CNTY2_C03 anti-idiotype VHH (periplasmic extract) (VHH)
VHH: EVQLLESGGGLVQPGGSLRLSCAASGLTFSRYAMGWYRQAPGKERELVSAISSRRSTYYADSVKGRFTISRDNSKNTLYLQMNSLRAEDTAVYYCAADYRLTSLERARYASASITYDYWGQGTQVTVSS
notes: Screened as periplasmic extract; also called VHH of AMD78
Turning to B22, the binding result in experiment [2] is “no binding”.

B23: AMD67 (Fc fusion)
VHH-Fc: EVQLLESGGGLVQPGGSLRLSCAASGRTFSSGAMGWYRQAPGKERELVSAISNRGSTVYADSVKGRFTISRDNSKNTLYLQMNSLRAEDTAVYYCAADRNPSSAGAGVAAYRLIARFNYWGQGTQVTVSS
notes: also called huD04_CNTY2_F09 anti-idiotype VHH IgG1-Fc fusion
B23: the binding result in experiment [4] is given as “no binding (tested: 50 nM)”.
